From patent publication US20170015742A1 (published 2017)
Positions count from the first letter of the chain named. Names may count otherwise. Each block holds one binder with its values, some of them ahead of it.

Key:
Human PDGF-BB [1] = biological target: T1, Human PDGF-BB (human, UniProt P01127 82-190); assay: Biacore SPR (Example 1.1); footnote **: heterogeneous off-rate
T1 construct: Recombinant human PDGF-BB, a dimer of two B chains; also called huPDGF-BB; hPDGF-BB
Procedure: (§1) Unreacted moieties on the biosensor surface were blocked with ethanolamine. For kinetic analysis, rate equations derived from the 1:1 Langmuir binding model were fitted simultaneously to multiple antigen injections (using global fit analysis) with the use of Scrubber 2 (BioLogic Software), Biacore Biaevaluation 4.0.1 software or Biacore T100 Evaluation software. Purified antibodies or DVD-Ig molecules were diluted in running buffer for capture across goat anti-human Fc reaction surfaces. Antibodies or DVD-Ig molecules to be captured as a ligand (1 μg/ml) were injected over reaction matrices at a flow rate of 10 μl/minute. During the assay, all measurements were referenced against the capture surface alone (i.e., with no captured antibody or DVD-Ig molecule). […] The equilibrium dissociation constant KD (M) of the reaction between antibodies and the target antigen was then calculated from the kinetic rate constants by the following formula: KD=Koff/Kₒₙ. Binding was recorded as a function of time and kinetic rate constants were calculated. In this assay, on-rates as fast as 10⁶M⁻¹s⁻¹ and off-rates as slow as 10⁻⁶ s⁻¹ could be measured.

Human PDGF-BB [2] = biological target: T1, Human PDGF-BB; assay: Biacore SPR (Example 1.1)
Procedure: as §1

[3] = biological target: T2, recombinant human VEGF-R2-Fc (R&D Systems cat#357-KD) (human, UniProt P35968 20-764); assay: direct binding ELISA on coated recombinant human VEGF-R2-Fc (Example 1.22)
T2 construct: Bought reagent; also called hVEGFR2-Fc; hVEGF-R2 (KDR/Flk-1); not shown: Fc part of the bought fusion protein
T2 sequence (P35968 20-764 limits assumed): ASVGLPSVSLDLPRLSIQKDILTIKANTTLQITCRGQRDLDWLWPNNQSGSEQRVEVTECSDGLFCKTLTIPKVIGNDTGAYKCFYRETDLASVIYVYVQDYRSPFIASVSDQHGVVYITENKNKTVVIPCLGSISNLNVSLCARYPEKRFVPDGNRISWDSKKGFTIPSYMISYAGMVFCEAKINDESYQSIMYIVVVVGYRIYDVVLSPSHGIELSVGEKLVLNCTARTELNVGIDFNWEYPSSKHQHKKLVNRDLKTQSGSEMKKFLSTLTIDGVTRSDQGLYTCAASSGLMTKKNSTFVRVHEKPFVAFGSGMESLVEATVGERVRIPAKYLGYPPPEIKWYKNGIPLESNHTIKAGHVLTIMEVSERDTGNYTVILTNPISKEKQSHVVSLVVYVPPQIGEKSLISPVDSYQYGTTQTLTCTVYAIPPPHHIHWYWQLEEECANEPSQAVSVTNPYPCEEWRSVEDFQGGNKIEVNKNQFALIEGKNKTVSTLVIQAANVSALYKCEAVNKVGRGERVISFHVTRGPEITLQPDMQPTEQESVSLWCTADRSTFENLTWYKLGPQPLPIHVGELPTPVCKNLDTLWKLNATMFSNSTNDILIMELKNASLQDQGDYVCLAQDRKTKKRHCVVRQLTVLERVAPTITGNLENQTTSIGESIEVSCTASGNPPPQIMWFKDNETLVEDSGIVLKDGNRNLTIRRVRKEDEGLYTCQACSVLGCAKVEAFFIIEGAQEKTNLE
Procedure: Plates were then washed four times with wash buffer (TBS, 0.05% Tween-20) and blocked with Superblock blocking buffer (Thermo Scientific, cat#37535). […] Following incubation, plates were washed four times with wash buffer. […] Plates were washed four times with wash buffer and developed with the addition of Enhanced K-blue TMB substrate (Neogen cat#308177). The reaction was stopped with 2N sulfuric acid (VWR, cat# BDH3500-1) and the absorbance was read at 450 nm-570 nm. […] Data was analyzed using Softmax Pro 4.8 software and IC₅₀ values calculated using a sigmoidal dose response (variable slope) fit in GraphPad Prism 5.

Human PDGF-BB [4] = biological target: T1, Human PDGF-BB; assay: competition ELISA: huPDGF-BB-biotin binding to coated huPDGF-Rβ-Fc (Example 1.13)
Procedure: (§2) Plates were then washed four times with wash buffer (TBS, 0.05% Tween-20) and blocked with Superblock blocking buffer (Thermo Scientific, cat#37535). During the blocking step, supernatants, antibodies, benchmark compounds or DVD-Ig were diluted in assay diluent (10% Superblock containing 0.05% surfactamps) and an eight point titration of each sample molecule was performed. […] Following incubation, plates were washed four times with wash buffer. Detection reagent Streptavidin-polyHRP-40 (Fitzgerald, cat#65r-s104phrp) was diluted in assay diluent and added to plates (50 μL) for 45 minutes at 25° C. with shaking. Plates were washed four times with wash buffer and developed with the addition of Enhanced K-blue TMB substrate (Neogen, cat#308177). The reaction was stopped with 2N sulfuric acid (VWR, cat# BDH3500-1) and the absorbance was read at 450 nm-570 nm. […] Data was analyzed using Softmax Pro 4.8 software and IC₅₀ values calculated using a sigmoidal dose response (variable slope) fit in GraphPad Prism 5.

Human PDGF-BB [5] = biological target: T1, Human PDGF-BB; assay: cell-based or functional assay
[6] = biological target: T3, recombinant human PDGF-BB (human, UniProt P01127 82-190); assay: competition ELISA: DVD-Ig titrated against biotinylated hPDGF-BB binding to coated hPDGF-Rbeta-Fc
T3 construct: bought (CST cat#8912BF); also called hPDGF-BB; huPDGF-BB
Procedure: as §2

[7] = biological target: T4, recombinant human VEGF165 (human, UniProt P15692 207-395); assay: competition ELISA: DVD-Ig titrated against biotinylated hVEGF165 binding to coated hVEGFR2-Fc
T4 construct: also called hVEGF165; huVEGF-A165
Procedure: To identify molecules that could block the binding of hVEGF₁₆₅ to the hVEGF-R2 (KDR/Flk-1) receptor, a competition ELISA was performed. […] Plates were then washed four times with wash buffer (TBS, 0.05% Tween-20) and blocked with Superblock blocking buffer (Thermo Scientific, cat#37535). […] The pre-incubated sample/hVEGF₁₆₅ complex was added to the coated plate at 50 μL in duplicate and incubated for 30 minutes at 25° C. with shaking. Following incubation, plates were washed four times with wash buffer. Streptavidin-polyHRP-40 (Fitzgerald cal#65r-s104phrp) was diluted in assay diluent (10% Superblock containing 0.05% surfactamps) and added to plates (50 μL) for 45 minutes at 25° C. with shaking. Plates were washed four times with wash buffer and developed with the addition of Enhanced K-blue TMB substrate (Neogen cat#308177). The reaction was stopped with 2N sulfuric acid (VWR, cat# BDH3500-1) and the absorbance was read at 450 nm-570 nm. A decrease in observed optical density indicates the test molecule is blocking the hVEGF₁₆₅ binding to the hVEGF-R2-Fc. Data was analyzed using Softmax Pro 4.8 software and IC₅₀ values calculated using a sigmoidal dose response (variable slope) fit in GraphPad Prism 5.

[8] = biological target: T3, recombinant human PDGF-BB; assay: cell-based or functional assay
[9] = biological target: T4, recombinant human VEGF165; assay: cell-based or functional assay
Human PDGF-BB [10] = biological target: T1, Human PDGF-BB; assay: Biacore SPR (Example 1.1); first of two rows for this clone
Procedure: as §1

Human PDGF-BB [11] = biological target: T1, Human PDGF-BB; assay: Biacore SPR (Example 1.1); second of two rows for this clone
Procedure: as §1

T1 sequence (P01127 82-190 limits assumed): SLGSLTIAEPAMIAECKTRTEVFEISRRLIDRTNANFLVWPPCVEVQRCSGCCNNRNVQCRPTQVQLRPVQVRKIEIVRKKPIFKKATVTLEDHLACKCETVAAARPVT

B3: BCU-3D6-C9 (antibody, V domains shown)
VH: QIQLVQSGPELKKPGESVKISCKASEYTFTDYAIHWVKQAPGKGLKWMGWINTYTGKPTYADDFKGRFVFSLEASASTANLQISNLKNEDTATYFCARDYGGYGERRDYFDYWGQGVMVTVSS
VL: DIQMTQSPASLSASLGETVTIECRVSEDIYNGLAWYQQKPGKSPQFLIYNANRLHTGVPSRFSGSGSGTQFSLKINSLQSEDVANYFCQQYYDYPLTFGSATKLEIK
notes: Rat hybridoma anti-human VEGFR II monoclonal antibody
binding result [3]: binds

B4: BFU-3E2-B9-B8 (antibody, V domains shown)
VH: EVQLQQSGPELQRPGASVKLSCKASGYTFTESYMYWVKQRPEQSLELIGRIDPEDGSTDYVEKFKNKATLTADTSSNTAYMQLSSLTSEDSATYFCARFGARSYFYPMDAWGQGTSVTVSS
VL: DTVLTQPPALAVSPGERVSISCRASESVSTLMHWYQQKPGQQPRLLIYGASNLESGVPARFSGSGSGTDFTLTIDPVEADDTATYFCQQSWNDPWTFGGGTKLELK
IC50 (Human PDGF-BB [4]): > 50000 pM
Phospho-Tyr751/hPDGF-BB Neutralization (Human PDGF-BB [5]): 0.642 nM
huPDGF-BB Neutralization Potency (nM) in NIH-3T3 Cells (Human PDGF-BB [5]): 0.247 nM
Kd (Human PDGF-BB [2]): ≤ 0.15 pM
kon (Human PDGF-BB [2]): ≥ 1e+07 M⁻¹ s⁻¹

B5: BFU-11A8-D6-C3 (antibody, V domains shown)
VH: B4 VH with M34I, S91T
VL: B4 VL with P7S, A9T, S21P
IC50 (Human PDGF-BB [4]): 7100 pM
Phospho-Tyr751/hPDGF-BB Neutralization (Human PDGF-BB [5]): 0.736 nM
huPDGF-BB Neutralization Potency (nM) in NIH-3T3 Cells (Human PDGF-BB [5]): 0.344 nM
Kd (Human PDGF-BB [2]): ≤ 0.047 pM
kon (Human PDGF-BB [2]): 2.1e+07 M⁻¹ s⁻¹

B6: 4G8.3-GS(9)-9E8.4 (g) DVD-Ig (PR-1572102) (bispecific antibody, human IgG1, kappa, L234A L235A)
heavy: EVQLVQSGSELKKPGASVKVSCKASGYTFTNYGMYWVRQAPGQGLEWMGWINTETGKPTYADDFKGRFVFSLDTSVSTAYLQISSLKAEDTAVYYCARTNYYYRSYIFYFDYWGQGTMVTVSSGGGGSGGGGSEVTLRESGPALVKPTQTLTLTCTFSGFSLSTYGMGVGWIRQPPGKALEWLANIWWDDDKYYNPSLKNRLTISKDTSKNQVVLTMTNMDPVDTATYYCARIESIGTTYSFDYWGQGTMVTVSSASTKGPSVFPLAPSSKSTSGGTAALGCLVKDYFPEPVTVSWNSGALTSGVHTFPAVLQSSGLYSLSSVVTVPSSSLGTQTYICNVNHKPSNTKVDKKVEPKSCDKTHTCPPCPAPEAAGGPSVFLFPPKPKDTLMISRTPEVTCVVVDVSHEDPEVKFNWYVDGVEVHNAKTKPREEQYNSTYRVVSVLTVLHQDWLNGKEYKCKVSNKALPAPIEKTISKAKGQPREPQVYTLPPSREEMTKNQVSLTCLVKGFYPSDIAVEWESNGQPENNYKTTPPVLDSDGSFFLYSKLTVDKSRWQQGNVFSCSVMHEALHNAYTQKSLSLSPGK
light: DTVLTQSPATLSLSPGERATLSCRASESVSTHMHWYQQKPGQAPRLLIYGASNLESGVPARFSGSGSGTDFTLTISSLEPEDFAVYFCQQSWNDPFTFGQGTKLEIKRGGSGGGGSGEFVLTQSPGTLSLSPGERATLSCERSSGDIGDSYVSWYQQKPGQAPRLVIYADDQRPSGIPDRFSGSGSGTDFTLTISRLEPEDFAVYYCQSYDINIDIVFGGGTKVEIKRTVAAPSVFIFPPSDEQLKSGTASVVCLLNNFYPREAKVQWKVDNALQSGNSQESVTEQDSKDSTYSLSSTLTLSKADYEKHKVYACEVTHQGLSSPVTKSFNRGEC
notes: DVD-Ig, outer hBDB-4G8.3 (VEGF), inner hBDI-9E8.4 (PDGF); IgG1 L234A, L235A, H435A / kappa; also called 4G8.3-GS-9E8.4 (g); DVD-Ig-1
IC50 [6]: > 5000 pM
IC50 [7]: 157 pM
NIH-3T3 hPDGF-BB Potency IC50 [8]: 528 pM
HMVEC-d hVEGF165 Potency IC50 [9]: 417 pM

B8: BDI-9E8-E7 (antibody, V domains shown)
VH: QVTLKESGPGILQPSQTLSLTCTFSGFSLSTYGMGVGWIRQPSGKGLEWLANIWWDDDKYYNPSLKNRLTISKDTSNNQAFLKITNVDTADTATYYCARIESIGTTYSFDYWGQGVMVTVSS
VL: QFTLTQPKSVSGSLRSTITIPCERSSGDIGDSYVSWYQQHLGRPPINVIYADDQRPSEVSDRFSGSIDSSSNSASLTITNLQMDDEADYFCQSYDINIDIVFGGGTKLTVL
Kd (Human PDGF-BB [10]): ≤ 0.058 pM
kon (Human PDGF-BB [10]): ≥ 1.7e+07 M⁻¹ s⁻¹
Kd (Human PDGF-BB [11]): ≤ 0.1 pM
kon (Human PDGF-BB [11]): ≥ 1e+07 M⁻¹ s⁻¹

Continued, values first:

Kd (Human PDGF-BB [1]): ≤ 670 pM
kon (Human PDGF-BB [2]): ≥ 1e+07 M⁻¹ s⁻¹
B1: BDI-6A3-A9 (antibody, V domains shown)
VH: EVQLVESGGGLVQPGRSLKFSCAASGFSFSDSAMAWVRQAPKKGLEWVATIIYDGSGTYYRDSVKGRFTISRDNAKSTLYLQMDSLRSEDTATYYCARLGFNYGNYGYYVMDAWGQGASVTVSS
VL: QFTLTQPKSVSGSLRNTITIPCERSSGDIGDSYVSWYQQHLGRPPINVIFADDQRPSEVSDRFSGSIDSSSNSASLTITNLQMDDEADYFCQSYDSNIDINIVFGGGTKLTVL

Kd (Human PDGF-BB [1]): ≤ 37 pM
kon (Human PDGF-BB [2]): ≥ 1e+07 M⁻¹ s⁻¹
B2: BDI-1E1-D5 (antibody, V domains shown)
VH: EVKLQQSGDELVRPGASVKMSCKASGYTFTDYVMHWVKQSPGQGLEWIGTIIPLIDTTSYNQKFKGKATLTADKSSNTAYMELSRLTSEDSAVYYCARTSPYYYSSYDVMDAWGQGASVTVSS
VL: NIQLTQSPSLLSASVGDRVTLSCKGSQNINNYLAWYQQKLGEAPKLLIYKTNNLQTGIPSRFSGCGSGTDYTLTISSLHSEDLATYYCYQYDNGYTFGAGTKLELK

IC50 [6]: > 5000 pM
IC50 [7]: 111 pM
NIH-3T3 hPDGF-BB Potency IC50 [8]: 290 pM
HMVEC-d hVEGF165 Potency IC50 [9]: 347 pM
B7: 4G8.3-SL-9E8.4 (g) DVD-Ig (PR-1572105) (bispecific antibody, human IgG1, kappa, L234A L235A)
heavy: EVQLVQSGSELKKPGASVKVSCKASGYTFTNYGMYWVRQAPGQGLEWMGWINTETGKPTYADDFKGRFVFSLDTSVSTAYLQISSLKAEDTAVYYCARTNYYYRSYIFYFDYWGQGTMVTVSSASTKGPEVTLRESGPALVKPTQTLTLTCTFSGFSLSTYGMGVGWIRQPPGKALEWLANIWWDDDKYYNPSLKNRLTISKDTSKNQVVLTMTNMDPVDTATYYCARIESIGTTYSFDYWGQGTMVTVSSASTKGPSVFPLAPSSKSTSGGTAALGCLVKDYFPEPVTVSWNSGALTSGVHTFPAVLQSSGLYSLSSVVTVPSSSLGTQTYICNVNHKPSNTKVDKKVEPKSCDKTHTCPPCPAPEAAGGPSVFLFPPKPKDTLMISRTPEVTCVVVDVSHEDPEVKFNWYVDGVEVHNAKTKPREEQYNSTYRVVSVLTVLHQDWLNGKEYKCKVSNKALPAPIEKTISKAKGQPREPQVYTLPPSREEMTKNQVSLTCLVKGFYPSDIAVEWESNGQPENNYKTTPPVLDSDGSFFLYSKLTVDKSRWQQGNVFSCSVMHEALHNAYTQKSLSLSPGK
light: DTVLTQSPATLSLSPGERATLSCRASESVSTHMHWYQQKPGQAPRLLIYGASNLESGVPARFSGSGSGTDFTLTISSLEPEDFAVYFCQQSWNDPFTFGQGTKLEIKRTVAAPSVFIFPPEFVLTQSPGTLSLSPGERATLSCERSSGDIGDSYVSWYQQKPGQAPRLVIYADDQRPSGIPDRFSGSGSGTDFTLTISRLEPEDFAVYYCQSYDINIDIVFGGGTKVEIKRTVAAPSVFIFPPSDEQLKSGTASVVCLLNNFYPREAKVQWKVDNALQSGNSQESVTEQDSKDSTYSLSSTLTLSKADYEKHKVYACEVTHQGLSSPVTKSFNRGEC
notes: DVD-Ig, outer hBDB-4G8.3 (VEGF), inner hBDI-9E8.4 (PDGF); IgG1 L234A, L235A, H435A / kappa; also called DVD-Ig-3
